Molecular target: the molecule itself
Test: SEC; native whole-cell lysate of NIH3T3 AP1 KO cells on Yarra SEC-2000 (1 kDa to 300 kDa); fractions immunoblotted

B1: phosphoribosyl pyrophosphate synthetase 2 (PRPS2), mouse, endogenous (enzyme, UniProt Q9CS42 1-318, looked up)
chain: MPNIVLFSGSSHQDLSQRVADRLGLELGKVVTKKFSNQETSVEIGESVRGEDVYIIQSGCGEINDNLMELLIMINACKIASSSRVTAVIPCFPYARQDKKDKSRAPISAKLVANMLSVAGADHIITMDLHASQIQGFFDIPVDNLYAEPAVLQWIRENITEWRNCIIVSPDAGGAKRVTSIADRLNVEFALIHKERKKANEVDRMVLVGDVKDRVAILVDDMADTCGTICHAADKLLSAGATKVYAILTHGIFSGPAISRINSAAFEAVVVTNTIPQEDKMKHCSKIQVIDISMILAEAIRRTHNGESVSYLFSHVPL
notes: PRPS2, mouse, endogenous protein of NIH3T3 cells and mouse tissue; also called P2; source: endogenous, NIH3T3 (parental and CRISPR knockout clones), native lysate; endogenous, C57BL/6 mouse kidney, native lysate
B1 was tested. Which “stoichiometry N” value did it give?
The value was 2.

Source: paper doi:10.1101/2024.10.01.616059 (bioRxiv, 2024)
